Test results reported in patent US20030064410A1 (ECOLE POLYTECHNIQUE FEDERALE DE LAUSANNE EPFL, published 2003).
Square brackets hold non-standard residues; d marks the D form. Ends that are not written are not given here. sY = N[C@@H](Cc1ccc(OS(=O)(=O)O)cc1)C(=O)O

Key:
[1] = target: T1, VEGF165 (vascular endothelial cell growth factor, 165 isoform), recombinant from E. coli, refolded dimer (human, UniProt P15692-4 27-191, Example 1: about 4 AMCA coumarins per VEGF165, sites not given; Example 3 screen: biotinylated, sites not given); test: on-bead colorimetric screen, about 0.25 nM biotinylated VEGF165 with 1 equivalent of heparin
T1 construct: Tags from the pRSET vector are not mentioned; also called coumerin-VEGF; coumarin-labeled VEGF165
T1 sequence (P15692 other isoform, or with tags, fused parts or gaps limits assumed): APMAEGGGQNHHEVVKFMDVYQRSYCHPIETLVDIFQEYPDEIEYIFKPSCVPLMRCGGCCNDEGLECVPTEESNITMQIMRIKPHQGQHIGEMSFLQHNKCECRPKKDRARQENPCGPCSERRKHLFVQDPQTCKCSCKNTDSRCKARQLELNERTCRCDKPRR
Description: The resin was rinsed with TBS (5×) and 200 μL of 5-bromo-4-chloro-3-indoylphosphate p-toluidine salt/nitro blue tetrazolium chloride (BCIP/NBT) reagent was added to develop a blue/black color where the streptavidin alkaline phosphatase was present. Nonspecific adsorption of the streptavidin alkaline phosphatase was detected as blue/black stained beads. After 15 minutes, the resin was rinsed with TBS (5×) prior to adding 100 μL of about 0.25 nM of biotinylated VEGF₁₆₅ in the presence or absence of 1 or 10 equivalents of heparin sodium salt (isolated from porcine intestinal mucosa) in 400 μL of blocking buffer. The mixture was shaken overnight, the solution removed, the resin washed with TBS (6×), and 1 mL streptavidin alkaline phosphatase (diluted 1:1000 from a 1 mg/mL solution) was added. The streptavidin alkaline phosphatase preferentially attached to beads having VEGF since the VEGF was attached to biotin, which is a ligand for the streptavidin on the streptavidin alkaline phosphatase. After 2 h the solution was removed and rinsed with TBS (5×) and Fast Red substrate (PIERCE) was added to make the presence of the alkaline phosphatase visible by making a red color. Positive beads were those that were stained red. The red beads were selected, and subjected to 8M guanidine-HCl, pH=1.4 for 20 minutes prior to rinsing with H20 (3×) and DMF until residual color was removed. […]

[2] = target: T1, VEGF165 (vascular endothelial cell …); test: SPR

[sY][sY]GG[sY]D[sY]GGGG-{PEGA resin} (not fully specified (N-terminus); printed as Y(SO3)Y(SO3)GGY(SO3)DY(SO3)) [Y(SO3)Y(SO3)GGY(SO3)DY(SO3)-Gly-Gly-Gly-Gly-PEGA bead]: binds [1].

F[sY]GG[sY]D[sY]GGGG-{PEGA resin} (not fully specified (N-terminus)) [FY(SO3)GGY(SO3)DY(SO3)-Gly-Gly-Gly-Gly-PEGA bead]: binds [1].

B1: SY(SO3)DY(SO3)G (peptide)
peptide: S[sY]D[sY]G
modifications: not fully specified (C-terminus); printed as SY(SO3)DY(SO3)G
notes: Independently synthesized free peptide used in SPR
Binder B1 has a Kd [2] of 3100 nM.

B2: Y(SO3)Y(SO3)GGY(SO3)DY(SO3)G (peptide)
peptide: [sY][sY]GG[sY]D[sY]G
modifications: not fully specified (N-terminus, C-terminus); printed as Y(SO3)Y(SO3)GGY(SO3)DY(SO3)G
notes: as for B1
With B2 the Kd [2] was 140 nM.
